Test results published in publication PMC4643876, “Picomolar Inhibition of Plasmepsin V, an Essential Malaria Protease, Achieved Exploiting the Prime Region” (PLoS ONE, 2015).

Legend:
[1] = target: GFP-tagged Plasmepsin V (PmV-GFP), P. falciparum clone DC6 (Plasmodium falciparum)
[2] = target: GFP-tagged Plasmepsin V (PmV-GFP), P. falciparum clone DC6 (Plasmodium falciparum); experiment: enzyme inhibition (fluorogenic substrate cleavage), Ki calculated from IC50; bead-bound PmV-GFP at <=10 pM, 3 uM DABCYL-[…]-EDANS substrate, serial dilution of inhibitor 10 uM to 0.1 pM, 37 C, 50 mM Tris-Maleate pH 6.5, 50 mM NaCl, 0.05% TX-100, 2 mM DTT; Ki from IC50 = Ki (1 + [S]/KM)

Chain of GFP-tagged Plasmepsin V (PmV-GFP), P. falciparum clone DC6 (Plasmodium falciparum) (Q8I6Z5 whole entry): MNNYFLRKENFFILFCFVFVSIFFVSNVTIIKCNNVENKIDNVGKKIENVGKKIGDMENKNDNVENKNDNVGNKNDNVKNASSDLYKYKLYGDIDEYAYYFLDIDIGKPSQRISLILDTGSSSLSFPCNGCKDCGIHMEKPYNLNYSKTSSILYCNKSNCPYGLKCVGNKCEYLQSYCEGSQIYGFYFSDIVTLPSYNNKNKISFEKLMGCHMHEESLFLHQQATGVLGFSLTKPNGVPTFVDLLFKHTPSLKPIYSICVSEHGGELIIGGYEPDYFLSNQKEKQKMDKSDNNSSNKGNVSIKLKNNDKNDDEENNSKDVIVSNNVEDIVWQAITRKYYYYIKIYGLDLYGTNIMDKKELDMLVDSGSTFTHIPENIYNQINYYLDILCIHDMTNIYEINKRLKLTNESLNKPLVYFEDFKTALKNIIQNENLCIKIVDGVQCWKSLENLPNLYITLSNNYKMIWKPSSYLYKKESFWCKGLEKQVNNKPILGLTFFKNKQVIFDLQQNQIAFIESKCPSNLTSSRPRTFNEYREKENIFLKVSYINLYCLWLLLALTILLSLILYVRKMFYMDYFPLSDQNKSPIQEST

## Compound 1 (LG20), RL[L~A]EA (peptide)
[1]
  IC50 of inhibition of PmV cleavage of the fluorogenic HRPII-PExEl substrate (enzyme pre-mixed with inhibitor): 0.367 nM
  IC50 of inhibition of PmV cleavage of the fluorogenic HRPII-PExEl substrate (inhibitor added after the reaction was initiated): 0.329 nM
[2]
  Ki: 0.197 nM
